{"source": "patent US20120214173A1", "about": "“Methods of Identifying Modulators of an Ehd Polypeptide” (priority 2007, published 2012)", "molecules": {"B1": {"name": "T72A: EHD2 mutant in the phosphate binding (P-)loop, nucleotide-free (protein, UniProt Q8BH64 1-543, looked up, variant T72A)", "EH domain-containing protein 2": "MFSWLKKGGARGQRPEAIRTVTSSLKELYRTKLLPLEEHYRFGSFHSPALEDADFDGKPMVLVAGQYSTGKASFIQYLLEQEVPGSRVGPEPTTDCFVAVMHGETEGTVPGNALVVDPEKPFRKLNPFGNTFLNRFMCAQLPNQVLESISIIDTPGILSGAKQRVSRGYDFPAVLRWFAERVDLIILLFDAHKLEISDEFSEAIGALRGHEDKIRVVLNKADMVETQQLMRVYGALMWALGKVVGTPEVLRVYIGSFWSQPLLVPDNRRLFELEEQDLFRDIQGLPRHAALRKLNDLVKRARLVRVHAYIISYLKKEMPTVFGKENKKKQLILKLPVIFAKIQLEHHISPGDFPDCQKMQELLMAHDFTKFHSLKPKLLEALDDMLAQDIAKLMPLLRQEELESVEAGVQGGAFEGTRMGPFVERGPDEAIEDGEEGSEDDAEWVVTKDKSKYDEIFYNLAPADGKLSGSKAKTWMVGTKLPNSVLGRIWKLSDVDRDGMLDDEEFALASHLIEAKLEGHGLPTNLPRRLVPPSKRRQKGSAE"}, "B2": {"name": "F322A: EHD2 membrane-binding site mutant (protein, UniProt Q8BH64 1-543, looked up, variant F322A)", "EH domain-containing protein 2": "MFSWLKKGGARGQRPEAIRTVTSSLKELYRTKLLPLEEHYRFGSFHSPALEDADFDGKPMVLVAGQYSTGKTSFIQYLLEQEVPGSRVGPEPTTDCFVAVMHGETEGTVPGNALVVDPEKPFRKLNPFGNTFLNRFMCAQLPNQVLESISIIDTPGILSGAKQRVSRGYDFPAVLRWFAERVDLIILLFDAHKLEISDEFSEAIGALRGHEDKIRVVLNKADMVETQQLMRVYGALMWALGKVVGTPEVLRVYIGSFWSQPLLVPDNRRLFELEEQDLFRDIQGLPRHAALRKLNDLVKRARLVRVHAYIISYLKKEMPTVAGKENKKKQLILKLPVIFAKIQLEHHISPGDFPDCQKMQELLMAHDFTKFHSLKPKLLEALDDMLAQDIAKLMPLLRQEELESVEAGVQGGAFEGTRMGPFVERGPDEAIEDGEEGSEDDAEWVVTKDKSKYDEIFYNLAPADGKLSGSKAKTWMVGTKLPNSVLGRIWKLSDVDRDGMLDDEEFALASHLIEAKLEGHGLPTNLPRRLVPPSKRRQKGSAE"}, "B3": {"name": "K328D: EHD2 polybasic cluster mutant (protein, UniProt Q8BH64 1-543, looked up, variant K328D)", "EH domain-containing protein 2": "MFSWLKKGGARGQRPEAIRTVTSSLKELYRTKLLPLEEHYRFGSFHSPALEDADFDGKPMVLVAGQYSTGKTSFIQYLLEQEVPGSRVGPEPTTDCFVAVMHGETEGTVPGNALVVDPEKPFRKLNPFGNTFLNRFMCAQLPNQVLESISIIDTPGILSGAKQRVSRGYDFPAVLRWFAERVDLIILLFDAHKLEISDEFSEAIGALRGHEDKIRVVLNKADMVETQQLMRVYGALMWALGKVVGTPEVLRVYIGSFWSQPLLVPDNRRLFELEEQDLFRDIQGLPRHAALRKLNDLVKRARLVRVHAYIISYLKKEMPTVFGKENKDKQLILKLPVIFAKIQLEHHISPGDFPDCQKMQELLMAHDFTKFHSLKPKLLEALDDMLAQDIAKLMPLLRQEELESVEAGVQGGAFEGTRMGPFVERGPDEAIEDGEEGSEDDAEWVVTKDKSKYDEIFYNLAPADGKLSGSKAKTWMVGTKLPNSVLGRIWKLSDVDRDGMLDDEEFALASHLIEAKLEGHGLPTNLPRRLVPPSKRRQKGSAE"}}, "key": {"EH-domain of EHD2": {"molecular_target": "T1, EH-domain of EHD2 (Mus musculus, UniProt Q8BH64)", "T1 sequence (Q8BH64 449-537 limits assumed)": "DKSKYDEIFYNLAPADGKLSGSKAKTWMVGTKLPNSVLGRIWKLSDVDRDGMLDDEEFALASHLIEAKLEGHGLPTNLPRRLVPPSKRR", "assay": "ITC peptide binding to the EH-domain of EHD2", "details": "ITC at 10° C.; for affinity of xPF peptide to the EH-domain of EHD2 by ITC: 100 mM HEPES (pH 7.5), 50 mM NaCl, 200 μM CaCl2", "from_the_text": "EH-domains are low affinity protein-protein interactors normally found in endocytic multi-subunit assemblies. A likely purpose of the EH-domain is in recruitment of the protein to sites of action. […] An alternative explanation for the function of the EH-domain in the oligomer can be proposed based on the presence of two conserved PF motifs (NPF and IPF) in a disordered surface loop at the side of the G-domain between β-sheet 2A and 2B. In our proposed oligomer, the EH-domains from one dimer are close to the side-site NPF motif of the adjacent dimer (FIG. 4c) and thus after oligomerisation on membranes they may switch position from the top site position in the dimer to the side site in the opposing dimer. […] A dominant negative mutant in C. elegans Rme1 is found in the linker between the EH-domain and the helical domain^3 pointing to the importance of this flexible linker."}, "[1]": {"assay": "Liposome co-sedimentation (membrane binding) assay", "details": "Folch / PS liposomes", "description": "(§1) Amino acid numbering corresponds to mouse EHD2. b, EHD2 binds to adenine nucleotides, as determined by ITC. For clarity, ΔΔH=ΔHn−ΔH1 is plotted. […] Images were acquired close to the basal cell surface. f, Nucleotide hydrolysis was measured by HPLC in the absence (empty symbols) or presence of Folch liposomes (filled symbols). Data represent mean and standard deviation for two (intrinisic reactions) or three (stimulated reactions) independent experiments.\n(§2) Nucleotide hydrolysis was measured as described in FIG. 1f. In vitro tubulation activity of PS liposomes was analysed as described in FIG. 1d. f, EGFP-tagged mutants were over-expressed in HeLa cells. […] For each construct, three independent experiments with ≈50 cells/experiments were analysed.\n(§3) ITC measurements were performed at 10° C. in 20 mM HEPES (pH 7.5), 300 mM NaCl, 2 mM MgCl2. Liposome binding assays were performed as described previously (www.endocytosis.org). Multiple turnover ATPase assays were performed in 20 mM HEPES (pH 7.5), 135 mM NaCl, 15 mM KCl, 1 mM MgCl2 at 30° C. with 10 μM EHD2 (or mutants) as enzyme and 100 μM ATP as substrate, in the absence or presence of 1 mg/ml Folch liposomes (Sigma-Aldrich).\nMouse full-length EHD2 was expressed in bacteria and purified to homogeneity (FIG. 5). The purified protein was nucleotide-free as judged by HPLC analysis. […] It was previously reported that EHDs—despite having a predicted G-domain—bind to adenine nucleotides^15. […] We still refer to this domain as a G-domain because the sequence and fold (see below) are clearly similar to other G-domains. […] Using synthetic liposomes containing various different phosphatidyl-inositols (PI) (FIG. 1c) we observed best binding to liposomes containing PI(4,5)bisphosphate (PIP2)."}, "EHD2": {"molecular_target": "T2, EHD2 (Mus musculus, UniProt Q8BH64)", "T2 construct": "Mouse EHD2 full-length protein and all mutants were expressed as N-terminal His-fusions followed by a PreScission cleavage site; His (N, cleaved yes); made in house; host or cells: Escherichia coli BL21 DE3 Rosetta", "T2 sequence (Q8BH64 1-543)": "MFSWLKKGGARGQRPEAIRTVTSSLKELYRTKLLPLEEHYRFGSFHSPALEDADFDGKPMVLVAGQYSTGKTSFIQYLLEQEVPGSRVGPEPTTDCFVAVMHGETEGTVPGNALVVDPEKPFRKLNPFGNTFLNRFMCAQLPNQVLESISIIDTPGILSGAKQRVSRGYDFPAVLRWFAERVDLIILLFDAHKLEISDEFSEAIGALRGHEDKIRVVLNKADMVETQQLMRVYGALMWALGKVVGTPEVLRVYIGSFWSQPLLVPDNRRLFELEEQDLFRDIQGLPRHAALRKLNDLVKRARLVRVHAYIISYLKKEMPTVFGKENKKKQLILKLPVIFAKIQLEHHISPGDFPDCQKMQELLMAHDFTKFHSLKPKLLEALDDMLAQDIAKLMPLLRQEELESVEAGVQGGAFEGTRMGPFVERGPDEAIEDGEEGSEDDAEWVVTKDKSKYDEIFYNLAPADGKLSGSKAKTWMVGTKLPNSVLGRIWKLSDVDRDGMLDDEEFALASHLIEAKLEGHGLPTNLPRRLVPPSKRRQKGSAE", "assay": "Multiple turnover ATPase assay (nucleotide hydrolysis by HPLC) with or without Folch liposomes", "assay_type": "biochemical", "details": "for membrane-stimulated ATPase activity (in words) / decrease in the stimulated ATPase rate versus wt: presence of Folch liposomes; for kobs stimulated ATPase reaction: 10 μM protein, 100 μM ATP, 30° C., presence of 1 mg/ml Folch (or PS) liposomes", "description": "as §1, §3\nReactions were started by the addition of the protein to the final reaction mix and nucleotide hydrolysis was followed using standard HPLC measurement^27. Initial rates were determined by applying a linear fit to data points up to 40% nucleotide hydrolysis. For electron microscopic studies, 2.5 μM EHD2 in 20 mM HEPES (pH 7.5), 150 mM NaCl, 1 mM MgCl2 was incubated for 15 min at 25° C. in the presence of 1 mM nucleotide and 0.05 mg/ml (final concentration) of the indicated liposomes. Samples were spotted on carbon-coated copper grids (Canemco and Marivac) and negatively stained with 2% uranyl acetate.\nWe next monitored the effect of membrane-binding on the ATPase activity of. EHD2 under multiple-turnover conditions (10-fold excess of ATP over EHD2), in the presence and absence of Folch liposoines (FIG. 1f). The intrinsic/background ATPase activity is extremely slow (kobs=0.7 h^−1) but is stimulated 8-fold in the presence of Folch or PS liposomes (kobs=5.6 h^−1)."}, "HeLa cells": {"system": "HeLa cells", "assay": "Over-expression of EGFP-tagged EHD2 and mutants in HeLa cells (confocal / live imaging)", "assay_type": "cell-based", "details": "24 h after transfection, fixed", "description": "as §1, §2\nUltracentrifugation. Sedimentation velocity experiments were performed in a Beckman Optima XLA ultracentrifuge, using an An-60Ti rotor. Centrifugation was at 50,000 rev×min and 5° C. at an EHD2 concentration of 15 μM, with scans as fast as possible (˜1.5 min intervals). The data were analysed using DCDT+ v.2^44,45, with the partial specific volume for the protein (from the amino acid composition) and solvent density and viscosity calculated using Sednterp^46. Selected scans (at equal, ˜15 min intervals), and of g(s20,w) (the amount of material sedimenting between s20,w and (s20,w+δs)) and also the residuals for fitting the data with DCDT+, were plotted with the program profit v.5.6.7 (Quantum soft, Switzerland). Cell biology. N-terminal EGFP-tagged EHD2 and all mutants were over-expressed in HeLa cells from the pEGFP-C3 vector (Clontech). HeLa cells were grown as per ECACC guidelines with 10% fetal bovine serum and transfected using Genejuice (Novagen) for transient protein expression. 24 h after transfection, cells were fixed for 10 min at 37° C. in 3% paraformaldehyde and mounted. All confocal images were taken sequentially using a BioRad Radiance system and LaserSharp software (Biorad). For real-time microscopy, transfected cells on glass-bottom Petri dishes (WillCo Wells BV, Amsterdam) were washed with 25 mM HEPES (pH 7.5), 125 mM NaCl, 5 mM KCl, 10 mM D-glucose, 1 mM MgCl2, 2 mM CaCl), and epifluorescence images were taken using an Olympus IX70 microscope (Southhall, UK) and Argon laser (Melles Griot, Carlsbad, Calif.) with a Princeton instruments (Trenton, N.J.) cooled I-PentaMAX camera with MetaMorph software (Universal imaging).\nEHD2 wild-type was over-expressed in HeLa cells for 24 h and imaged by EPI-fluorescence for approximately 30 min.\nEHD2 T94A was over-expressed in HeLa cells for 24 h and imaged by EPI-fluorescence for approximately 30 min. […] EHD2 I157Q was over-expressed in HeLa cells for 24 h and imaged by EPI-fluorescence for approximately 30 min."}}, "note": "Entries after “also recorded” stand apart in the source; their conditions may differ. Ends that are not written are not given here."}
{"molecule": "KLNPFGNT [KLNPFGNT]", "values": [{"measurement": "n (fitted ITC value), peptide binding to EH-domain", "setting": "EH-domain of EHD2", "result": 1.33}]}
{"molecule": "RMGPFVER [peptide from EHD2 linker containing GPF motif]", "values": [{"measurement": "affinity of xPF peptide to the EH-domain of EHD2 by ITC", "setting": "EH-domain of EHD2", "result": "did not (show detectable binding"}, {"measurement": "affinity of xPF peptide to the EH-domain of EHD2 by ITC", "setting": "EH-domain of EHD2; listed as top site GPF peptide", "result": "not the top site GPF peptide, bound with a measurable affinity"}]}
{"molecule": "PEKPFRKL [peptide from EHD2 containing KPF motif]", "values": [{"measurement": "affinity of xPF peptide to the EH-domain of EHD2 by ITC", "setting": "EH-domain of EHD2", "result": "did not (show detectable binding"}]}
{"molecule": "B1", "values": [{"measurement": "binding to liposomes (co-sedimentation)", "setting": "[1]", "result": "bound to Folch liposomes"}, {"measurement": "membrane-stimulated ATPase activity (in words)", "setting": "EHD2", "result": "did not show stimulation of ATP hydrolysis; also recorded: did not show membrane-stimulated ATPase activity"}, {"measurement": "distribution of EGFP-tagged protein over-expressed in HeLa cells", "setting": "HeLa cells", "result": "cytoplasmic distribution"}]}
{"molecule": "B2", "values": [{"measurement": "binding to liposomes (co-sedimentation)", "setting": "[1]", "result": "bound less to liposomes"}, {"measurement": "kobs stimulated ATPase reaction", "setting": "EHD2", "result": 3.0, "unit": "h⁻¹"}, {"measurement": "decrease in the stimulated ATPase rate versus wt", "setting": "EHD2", "result": 40, "unit": "%"}, {"measurement": "membrane-stimulated ATPase activity (in words)", "setting": "EHD2", "result": "reduced ATPase stimulation"}, {"measurement": "distribution of EGFP-tagged protein over-expressed in HeLa cells", "setting": "HeLa cells", "result": "completely cytoplasmic distribution"}]}
{"molecule": "B3", "values": [{"measurement": "binding to liposomes (co-sedimentation)", "setting": "[1]", "result": "bound less to liposomes"}, {"measurement": "kobs stimulated ATPase reaction", "setting": "EHD2", "result": 1.6, "unit": "h⁻¹"}, {"measurement": "decrease in the stimulated ATPase rate versus wt", "setting": "EHD2", "result": 75, "unit": "%"}, {"measurement": "membrane-stimulated ATPase activity (in words)", "setting": "EHD2", "result": "reduced ATPase stimulation"}, {"measurement": "distribution of EGFP-tagged protein over-expressed in HeLa cells", "setting": "HeLa cells", "result": "completely cytoplasmic distribution"}]}
